# Test results from patent publication US20170240596A1 (CURATORS OF THE UNIVERSITY OF MISSOURI, published 2017).
# No end group written: not given here.
# B1: FAM-labeled scrambled GTI peptide SGYQTFYWPGPI (peptide)
# peptide: SGYQTFYWPGPI
# modifications: also: FAM label, position not given here
# notes: Random permutation of the GTI peptide; also called scrambled peptide; scrambled control
# B2: FAM-labeled TGH peptide TGHLYPTRMEIQ (peptide)
# peptide: TGHLYPTRMEIQ
# modifications: also: FAM label, position not given here
# B3: FAM-labeled YVN peptide YVNSHSILGYTG (peptide)
# peptide: YVNSHSILGYTG
# modifications: also: FAM label, position not given here
# B4: TGH synthetic peptide TGHLYPTRMEIQ (peptide)
# peptide: TGHLYPTRMEIQ
# B5: FAM-labeled HSD peptide HSDNHYRPADKL (peptide)
# peptide: HSDNHYRPADKL
# modifications: also: FAM label, position not given here
# B6: YVN synthetic peptide YVNSHSILGYTG (peptide)
# peptide: YVNSHSILGYTG
# Tests used:
# [1] = biological target: T1, Prostate-specific membrane antigen (PSMA) (human, UniProt Q04609 1-750); assay: apparent Kd by flow cytometry on C4-2 cells; weaker than GTI
# T1 construct: whole, on cells; Never tested as an isolated protein against single peptides; also called NAAG peptidase; glutamate carboxypeptidase II (GCPII)
# T1 sequence (Q04609 whole entry): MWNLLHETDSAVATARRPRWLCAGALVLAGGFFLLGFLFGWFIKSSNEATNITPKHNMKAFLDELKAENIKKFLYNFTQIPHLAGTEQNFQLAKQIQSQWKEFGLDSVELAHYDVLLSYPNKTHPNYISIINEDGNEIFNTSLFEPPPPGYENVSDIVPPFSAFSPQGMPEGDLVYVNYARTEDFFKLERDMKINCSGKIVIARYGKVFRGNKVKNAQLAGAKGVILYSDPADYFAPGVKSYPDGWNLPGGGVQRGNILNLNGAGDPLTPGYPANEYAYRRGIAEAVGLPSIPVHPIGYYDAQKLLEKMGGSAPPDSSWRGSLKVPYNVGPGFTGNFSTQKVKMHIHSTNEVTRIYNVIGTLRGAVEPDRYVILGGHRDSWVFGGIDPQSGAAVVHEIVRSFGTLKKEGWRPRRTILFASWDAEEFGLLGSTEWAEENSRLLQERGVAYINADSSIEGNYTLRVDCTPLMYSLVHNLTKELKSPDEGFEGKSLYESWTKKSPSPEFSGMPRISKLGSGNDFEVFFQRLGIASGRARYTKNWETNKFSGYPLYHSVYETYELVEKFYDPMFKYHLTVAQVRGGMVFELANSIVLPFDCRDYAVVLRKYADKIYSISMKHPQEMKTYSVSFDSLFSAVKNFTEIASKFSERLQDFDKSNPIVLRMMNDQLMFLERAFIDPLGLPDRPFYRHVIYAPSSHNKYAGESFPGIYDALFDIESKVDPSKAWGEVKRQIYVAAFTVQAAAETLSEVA
# [2] = biological target: T1, Prostate-specific membrane antigen …; assay: apparent Kd, flow cytometry, FAM-labeled peptide on PSMA-positive LNCaP cells, 4 C, one-site fit
# From the text: Flow cytometry analysis. Cells were detached using non-enzymatic cell dissociation solution and suspended in PBS (pH=7.4) at a concentration of 1×10⁶ cells/mL. […] The cells were then washed with PBS for three times and subjected to fluorescence analysis on a FACSCalibur flow cytometer (BD Biosciences, Franklin Lakes, N.J.).
# Apparent equilibrium dissociation constant (Kd) of the peptides. […] Flow cytometry was employed to determine the percentage of cells that were labeled with the peptides. The apparent Kd values were calculated by fitting to a one-site specific binding model using GraphPad Prism 5.
# [3] = biological target: T1, Prostate-specific membrane antigen …; assay: competitive inhibition on LNCaP cells, peptide pre-incubation at 100 uM then phage, phage titering
# Method: Competitive inhibition assay. Competitive binding inhibition between selected phages and their encoded peptides was examined in this study. […] The bound phages were recovered and titered as described above.
# It was first evaluated whether these phages bind to LNCaP cells via specific interaction with their encoding peptides. LNCaP cells were pre-incubated with the encoding peptides, followed by washing and incubation with the corresponding phages. The bound phages were then eluted and titered.
Binder,Kd [2],binding result [3],other results
B1,–,–,binding result [1]: binds
B2,8.01 µM,–,–
B3,9.34 µM,–,–
B4,–,binds,–
B5,12.8 µM,–,–
B6,–,binds,–
